In US20020132773A1, “Methods for reducing fat by administration of adiponectin” (Oklahoma Medical Research Foundation, priority 2001, published 2002):
Entries after “also recorded” stand apart in the source; their conditions may differ.

Columns and labels:
[1] = system: C/EBP-α and PPAR-γ in BMS2 preadipocytes; assay: Adipocyte gene expression analysis (Northern blot) in BMS2 cells; assay type: cell-based
Protocol: (§1) Poly(A)^+mRNA was prepared from the indicated samples using oligo(dT) columns (Ambion Inc, Austin, Tex.). Aliquots oifpoly(A)^+ mRNA (2 μg) were denatured in formamide and formaldehyde at 65 C and electrophoresed on formaldehyde-containing agarose gels. After capillary transfer to nylon membranes (MSI, Westbourough, Mass.), the RNA was crosslinked by UV exposure. cDNA probes for CCAAT/enhancer binding protein-α(C/EBP-α) and adipocyte P2 (aP2) were obtained from ResGen™ Invitrogen (Huntsville, Ala.) and American Type Culture Collection (Manassas, Va.) respectively. Probes with sizes corresponding to PPAR-γ, COX-1 and COX-2 were prepared as PCR products and all probes were radiolabeled with [α-^32P]dCTP using the random prime labeling system (Redi Prime™ II) purchased from Amersham Pharmacia Biotech.
(§2) Differentiation of BMS2 cells to adipocytes was achieved by treatment with 5 μg/ml insulin and 0.5 mM MIBX for 10 days. Differentiation of MS5 cells to adipocytes was achieved by treatment with 5 μg/ml insulin alone for 15 days. Cultures were treated with adiponectin, PGE2 or Dup-697 from the time of culture initiation. At the end of this period, cultures were photographed and then stained with Nile red to detect lipid accumulation indicative of adipocyte differentiation. The extent of differentiation was estimated by flow cytometry (FACScan; Becton-Dickinson, San Jose, Calif.).

[2] = system: BMS2 cells; assay: Adipocyte differentiation of BMS2 cells; assay type: cell-based; details: for fat cell formation (adipogenesis) of BMS2 cells: 5 μg/ml insulin and 0.5 mM MIBX, 10 days, proteins 10 μg/ml, PGE2 and Dup-697 1×10^-6 M, microscopy
Protocol: as §2

[3] = system: 3T3-L1 cells; assay: Adipocyte generation by 3T3-L1 cell line; assay type: cell-based; details: insulin as only inducing agent; adiponectin 10 μg/ml, PGE2 1×10^-6 M
Source text: Normal human bone marrow was collected by biopsy from the posterior iliac crest of healthy young volunteers with informed consent, and used for immunohistchemical analysis of adiponectin. BMS2 and 3T3-L1 cells were maintained in D-MEM (high glucose) supplemented with 10% fetal calf serum (FCS) (HyClone, Logan, Utah). MS5 cells were maintained in α-MEM medium supplemented with 10% FCS. Balb/c mice at 3-6 weeks old: were obtained from Charles Rivers Breeding Labatories (Wilmington, Me.). B6,129S-^Ptgs2tm1Jed (COX-2^+/−) mice and C57BL/6 mice (3-5 weeks old) were purchased from the Jackson Laboratory (Bar Harbor, Me.). High mortality and unavailability precluded use of homozygous COX^−/− animals in these experiments, but a single targeted allele abrogated preadipocyte responses to adiponectin.
Bone marrow cultures represent a complex mixture of hematopoietic cells that mature through interactions with an adherent stromal layer composed of fibroblasts, adipocytes, macrophages and endothelial cells.

[4] = system: MS5 or BMS2 stromal cell clones; assay: RT-PCR / Northern blot of transcripts in adiponectin-treated preadipocytes; assay type: cell-based
Protocol: Total RNA was isolated from MS5 or BMS2 cells treated with adiponectin for various periods using TRIzol Reagent (GIBCO-BRL, Grand Island, N.Y.) and suspended in DEPC-treated water. After treating total RNA with DNase (GIBCO-BRL), cDNA was made using random hexamers and moloney murine leukemia virus reverse transcriptase (GIBCO-BRL). For PCR, 10 μl of the RT mixtures described above were added to PCR buffer containing 1.5 mM MgCl2, 1 U Taq polymerase (Perkin Elmer, Norwalk, Conn.), 2 mM each dNTP, and relevant sense and antisense primers. The DNA in the PCR reaction mixtures was amplified using 25 to 35 cycles of 94 C for 1 min, 55 C for 2 min and 72 C for 3 min. The oligonucleotide primers used for these reactions were 5′-[…]-3′ (SEQ ID NO:5) and 5′-[…]-3′ (SEQ ID NO:6) for COX-2, and 5′-[…]-3′ (SEQ ID NO:7) and 5′-[…]-3′ (SEQ ID NO:8) for COX-1. Primers for TNF-α, TGF-β, interferon (IFN)-α/β/γ, and limitin were also prepared and used in this study.
as §1

[5] = system: MS5 cells; assay: Adipocyte differentiation of MS5 cells; assay type: cell-based; details: 5 μg/ml insulin, 15 days; adiponectin 10 μg/ml
Protocol: as §2

[6] = system: normal C57BL/6 bone marrow; assay: Adherent bone marrow cell cultures, normal mice; assay type: cell-based, mouse; details: treated weekly for 6 weeks
Protocol: (§3) Adherent bone marrow cell cultures were established with heterozygous knockout COX-2^+/− mice or normal C57BL/6 mice. BM cells were suspended at 2×10^5 per 6 ml of Dexter culture media and seeded in 25-cm^2 flasks. This cell concentration gives rise to adherent stromal layers without myeloid cell growth. Cultures were treated with adiponecitin or BSA at the time of culture initiation and weekly thereafter for 6 weeks.

[7] = system: MS5 or BMS2 cells; assay: Enzyme-immunoassay for PGE2 in culture supernatants; assay type: cell-based; details: confluent BMS2 or MS5 cells, versus BSA
Protocol: Confluent MS5 or BMS2 cells prepared in 24-well plates were incubated in 500 μl of media with or without adiponectin. Supernatants from these cultures were examined for the presence of PGE2 using an enzyme-immunoassay kit purchased from Cayman Chemical.

[8] = system: bone marrow cells of normal Balb/c mice (LTBMC); assay: Long-term bone marrow cultures (LTBMC, Dexter cultures); assay type: cell-based, mouse
Protocol: LTBMC that support formation of myeloid cells (Dexter cultures) were initiated and maintained by published methods (Dexter, T. M. and Testa, N. G. Methods Cell Biol. 14:387-405 (1976)). Bone marrow cells of normal Balb/c mice (12×10^6) were cultured in 25-cm^2 flasks in 5% CO2 at 33 C. The medium consisted of α-MEM supplemented with 100 nM hydrocortisone and 20% horse serum (HyClone). Cultures were treated with adiponectin or bovine serum albumin (BSA) beginning at culture initiation and thereafter weekly for 6 weeks. In some experiments, adiponectin was omitted from the media after 6 weeks of culture, and maintained for another 6 weeks with medium alone.

[9] = system: bone marrow cells of heterozygous knockout COX-2+/- mice; assay: Adherent bone marrow cell cultures, COX-2+/- mice; assay type: cell-based, mouse; details: cells derived from COX-2+/- animals, treated weekly for 6 weeks
Protocol: as §3

[10] = system: myeloid cell lines; details: cited from earlier work
[11] = system: cultured macrophages; details: cited from earlier work
[12] = system: CFU-granulocyte-macrophage, CFU-macrophage, CFU-granulocyte, BFU-erythroid, mixed erythroid-myeloid CFU; details: cited from earlier work
[13] = BMS2 cells, Nile red staining, flow cytometry

CCCCC[C@H](O)/C=C/[C@H]1[C@H](O)CC(=O)[C@@H]1C/C=C\CCCC(=O)O [PGE2, prostaglandin E2, reference compound]
increases of C/EBP-α and PPAR-γ expression induced by insulin and MIBX [1]: strongly inhibited
fat cell formation (adipogenesis) of BMS2 cells [2]: blocked
lipid accumulation induced by insulin and MIBX [2, 13]: completely blocked
generation of adipocytes by 3T3-L1 line [3]: minimally affected

B1: adiponectin: adipocyte-specific secretory protein of 244 amino acid residues; human recombinant peptide leader deficient protein, 32 kD monomer with multimers (protein)
chain: ETTTQGPGVLLPLPKGACTGWMAGIPGHPGHNGAPGRDGRDGTPGEKGEKGDPGLIGPKGDIGETGVPGAEGPRGFPGIQGRKGEPGEGAYVYRSAFSVGLETYVTIPNMPIRFTKIFYNQQNHYDGSTGKFHCNIPGLYYFAYHITVYMKDVKVSLFKKDKAMLFTYDQYQENNVDQASGSVLLHLEVGDQVWLQVYGEGERNGLYADNDNDSTFTGFLLYHDTN
increases of C/EBP-α and PPAR-γ expression induced by insulin and MIBX [1]: strongly inhibited
effect of adiponectin on C/EBP-α and PPAR-γ expression with Dup-697 ([1]; insulin and MIBX, Dup-697 1×10^-6 M): abrogated
basal expression of TGF-β, interferon-α/β/γ and limitin [4]: not obviously influenced
transcripts corresponding to TNF-α or interferon-β ([4]; MS5 cells, adiponectin added to cultures): not detectable
transcripts for COX-2 ([4]; MS5 or BMS2 stromal cell clones, confirmed by Northern blot): upregulated
suppression of adipocyte differentiation of MS5 clone [5]: substantial suppression
fat cell formation (adipogenesis) of BMS2 cells [2]: substantial suppression
fat cell formation (adipogenesis) of BMS2 cells ([2]; listed as Adiponectin): blocked adipogenesis
lipid accumulation induced by insulin and MIBX [2, 13]: completely blocked
response (block of lipid accumulation) to adiponectin with COX-2 inhibitor included ([2]; BMS2 cells, Nile red staining, flow cytometry, Dup-697 1×10^-6 M): substantially blocked
inhibition of BMS2 fat cell formation by adiponectin with Dup-697 present ([2]; insulin and MIBX, COX-2 inhibitor Dup-697 1×10^-6 M present): not observed
adipogenesis in adherent bone marrow cell cultures [6]: blocked adipogenesis
increase in PGE2 secretion [7]: approximately two-fold
fat cell formation in LTBMC ([8]; adiponectin 10 μg/ml in medium, from culture initiation and weekly for 6 weeks): completely inhibited
influence on myelopoiesis in LTBMC ([8]; adiponectin 10 μg/ml, conditions that favor myeloid cell production): no influence
reversibility of the negative influence on fat cell formation ([8]; adiponectin omitted after 6 weeks, another 6 weeks with medium alone): reversible
generation of adipocytes by 3T3-L1 line [3]: only slightly inhibited; also recorded: minimally affected
effect on adipogenesis in adherent bone marrow cell cultures [9]: minimum effect; also recorded: negligible
number of myeloid cell lines whose proliferation is inhibited [10]: 4 of 9
lipopolysaccharide-induced production of tumor necrosis factor-α by cultured macrophages [11]: significantly inhibits
phagocytic activity of cultured macrophages [11]: significantly inhibits
colony formation from CFU-granulocyte-macrophage, CFU-macrophage and CFU-granulocyte [12]: suppresses colony formation
colony formation of burst-forming units-erythroid or mixed erythroid-myeloid CFU [12]: no effect
